We go through three molecules from patent US7785829 (Biogen, dated 2010).

For assay [1], the target named is His-AP-Sp35 fusion protein (His-tagged alkaline phosphatase fused to the extracellular domain of Sp35, a.a. 34-532) (human) (UniProt P05187). Briefly: competition ELISA; AP-Sp35 pre-incubated with 100-fold excess of soluble sNgR344-Fc, immobilized sNgR344-Fc.
The target in assay [2] is T1, human NgR1 receptor expressed on COS7 cells (human, UniProt Q9BZR6 27-447).
T1 construct: whole, on cells; also called Nogo receptor-1; nogo receptor-1
T1 sequence (looked up): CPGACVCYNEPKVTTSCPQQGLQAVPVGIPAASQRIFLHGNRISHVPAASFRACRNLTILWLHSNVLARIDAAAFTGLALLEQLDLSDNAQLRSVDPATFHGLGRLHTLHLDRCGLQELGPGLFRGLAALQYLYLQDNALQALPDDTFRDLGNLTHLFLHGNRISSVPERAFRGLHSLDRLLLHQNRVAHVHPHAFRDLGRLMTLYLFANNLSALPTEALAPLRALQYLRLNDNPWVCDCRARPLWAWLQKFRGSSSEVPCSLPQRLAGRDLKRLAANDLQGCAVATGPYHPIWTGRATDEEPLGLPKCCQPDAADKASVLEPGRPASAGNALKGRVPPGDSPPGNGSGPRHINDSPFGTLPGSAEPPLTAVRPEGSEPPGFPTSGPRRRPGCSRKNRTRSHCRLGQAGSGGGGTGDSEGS
Description: AP-Sp35 titration on NgR1-transfected COS7 cells, AP activity with 4-nitrophenyl phosphate.

Assay [3] concerns the target T1, human NgR1 receptor expressed on COS7 …. Briefly: mutant AP-Sp35 construct tested for NgR1 binding.

B1: sNgR344-Fc (rat NgR1 peptide 35-344 fused to the rat IgG1) (Fc fusion, UniProt Q99M75 35-344, looked up, not shown: a dimerising Fc or GST)
chain: NEPKVTTSCPQQGLQAVPTGIPASSQRIFLHGNRISYVPAASFQSCRNLTILWLHSNALAGIDAAAFTGLTLLEQLDLSDNAQLRVVDPTTFRGLGHLHTLHLDRCGLQELGPGLFRGLAALQYLYLQDNNLQALPDNTFRDLGNLTHLFLHGNRIPSVPEHAFRGLHSLDRLLLHQNHVARVHPHAFRDLGRLMTLYLFANNLSMLPAEVLVPLRSLQYLRLNDNPWVCDCRARPLWAWLQKFRGSSSEVPCNLPQRLAGRDLKRLAASDLEGCAVASGPFRPFQTNQLTDEELLGLPKCCQPDAADKA
Take B1: in assay [1], the percent competition of binding was 80%.

B2: His-AP-Sp35 fusion protein (His-tagged alkaline phosphatase fused to the extracellular domain of Sp35, a.a. 34-532) (other, human)
chain: IIPVEEENPDFWNREAAEALGAAKKLQPAQTAAKNLIIFLGDGMGVSTVTAARILKGQKKDKLGPEIPLAMDRFPYVALSKTYNVDKHVPDSGATATAYLCGVKGNFQTIGLSAAARFNQCNTTRGNEVISVMNRAKKAGKSVGVVTTTRVQHASPAGTYAHTVNRNWYSDADVPASARQEGCQDIATQLISNMDIDVILGGGRKYMFRMGTPDPEYPDDYSQGGTRLDGKNLVQEWLAKRQGARYVWNRTELMQASLDPSVTHLMGLFEPGDMKYEIHRDSTLDPSLMEMTEAALRLLSRNPRGFFLFVEGGRIDHGHHESRAYRALTETIMFDDAIERAGQLTSEEDTLSLVTADHSHVFSFGGYPLRGSSIFGLAPGKARDRKAYTVLLYGNGPGYVLKDGARPDVTESESGSPEYRQQSAVPLDEETHAGEDVAVFARGPQAHLVHGVQEQTFIAHVMAFAACLEPYTACDLAPPAGTTDAAHPGTGCPPRCECSAQDRAVLCHRKRFVAVPEGIPTETRLLDLGKNRIKTLNQDEFASFPHLEELELNENIVSAVEPGAFNNLFNLRTLGLRSNRLKLIPLGVFTGLSNLTKLDISENKIVILLDYMFQDLYNLKSLEVGDNDLVYISHRAFSGLNSLEQLTLEKCNLTSIPTEALSHLHGLIVLRLRHLNINAIRDYSFKRLYRLKVLEISHWPYLDTMTPNCLYGLNLTSLSITHCNLTAVPYLAVRHLVYLRFLNLSYNPISTIEGSMLHELLRLQEIQLVGGQLAVVEPYAFRGLNYLRVLNVSGNQLTTLEESVFHSVGNLETLILDSNPLACDCRLLWVFRRRWRLNFNRQQPTCATPEFVQGKEFKDFPDVLLPNYFTCRRARIRDRKAQQVFVDEGHTVQFVCRADGDPPPAILWLSPRKHLVSAKSNGRLTVFPDGTLEVRYAQVQDNGTYLCIAANAGGNDSMPAHLHVRSYSPDWPHQPNKTFAFISNQPGE
notes: Order His-AP-Sp35 as in the name; also called alkaline phosphatase-Sp35 conjugate; His-AP-Sp35 (34-532); not shown: His tag
B2: the EC50 (commonly the concentration giving half of the maximal effect) in assay [2] was around 6 nM.

B3: His-AP-Sp35 (34-532) with amino acid 456 mutated from arginine to glutamic acid and amino acid 458 from histidine to valine (other)
chain: TGCPPRCECSAQDRAVLCHRKRFVAVPEGIPTETRLLDLGKNRIKTLNQDEFASFPHLEELELNENIVSAVEPGAFNNLFNLRTLGLRSNRLKLIPLGVFTGLSNLTKLDISENKIVILLDYMFQDLYNLKSLEVGDNDLVYISHRAFSGLNSLEQLTLEKCNLTSIPTEALSHLHGLIVLRLRHLNINAIRDYSFKRLYRLKVLEISHWPYLDTMTPNCLYGLNLTSLSITHCNLTAVPYLAVRHLVYLRFLNLSYNPISTIEGSMLHELLRLQEIQLVGGQLAVVEPYAFRGLNYLRVLNVSGNQLTTLEESVFHSVGNLETLILDSNPLACDCRLLWVFRRRWRLNFNRQQPTCATPEFVQGKEFKDFPDVLLPNYFTCRRARIRDRKAQQVFVDEGHTVQFVCRADGDPPPAILWLSPEKVLVSAKSNGRLTVFPDGTLEVRYAQVQDNGTYLCIAANAGGNDSMPAHLHVRSYSPDWPHQPNKTFAFISNQPGE
notes: also called Sp35 construct in which residues R at 456 and H at 458 were changed into E and V; not shown: N-terminal His tag and alkaline phosphatase (AP) reporter of the His-AP vector, with any junction residues
As for B3, in assay [3], the “fold drop in signal (against the unmutated construct)” value was above 10 fold.
